The text below walks through data of patent US20230340064A1 (published 2023).

For assay [1], the target named is T1, titin peptide on HLA-A*01:01 (human).
T1 peptide: ESDPIVAQY
Briefly: cytokine release.

The target of assay [2] is T2, MAGE-A3 peptide on HLA-A*01:01 (human).
T2 peptide: EVDPIGHLY
Briefly: multimer staining. The text has this:
CD8 T cells were isolated from PBMCs of a healthy donor and transduced with three different MAGE-A3-reactive TCRs. Transduced CD8⁺ T cells were enriched by FACS using the constant beta 1 region as a marker for transduction. After expansion of these cells, they were stained either with a MAGE-A3EVD-MHC-multimer (right panel) or antibodies against CD8 and Cß1 (left panel) and analyzed by flow cytometry. Populations were gated on single live cells.
Sequences of TCR-α and TCR-β chains of MAGE-A3-reactive T-cell clones were identified by Next Generation Sequencing and after exchanging the constant TCR regions by their minimal-murinized counterparts cloned into the retroviral vector pES.12-6. For the β chain the Cß1 sequence was used. PBMCs of three healthy donors were isolated by ficoll gradient centrifugation. CD8-positive Cß1-negative T-cells were enriched by negative magnetic selection (Miltenyi) and stimulated in non-tissue culture 24-well plates with plate bound antibodies specific for CD3 and CD28. Amphotropic retroviral particles were produced by transfection of HEK293T cells with the respective TCR encoding retroviral plasmid and two expression plasmids. Three days after stimulation, CD8-positive Cß1-negative T cells were transduced and on day ten enriched for transduced CD8⁺ cells by MACS-separation using the Cβ1 constant beta region as a marker for transduction and then expanded by REP. Transgenic T cells were stained either with an HLA-A1-restricted MAGE-A3EVD-MHC-multimer (MAGE-A3, […]; immuneAware) or antibodies against CD8 and the constant β1 region.

Assay [3] has as its target HLA-A1-restricted MAGE-A3EVD-MHC-multimer (MAGE-A3, …; immuneAware) (human). Description: flow cytometry, MHC-multimer staining of TCR-transduced CD8+ T cells.

B1: TCR1 (TCR, V domains shown)
Valpha: KQEVTQIPAALSVPEGENLVLNCSFTDSAIYNLQWFRQDPGKGLTSLLLIQSSQREQTSGRLNASLDKSSGRSTLYIAASQPGDSATYLCAVIEYGNKLVFGAGTILRVKS
Vbeta: DAMVIQNPRYQVTQFGKPVTLSCSQTLNHNVMYWYQQKSSQAPKLLFHYYDKDFNNEADTPDNFQSRRPNTSFCFLDIRSPGLGDAAMYLCATSWDRGYEQFFGPGTRLTVL
Take B1: the binding result is given as “no recognition” in assay [1] and “recognises” in assay [2].

B2: TCR3 (TCR, V domains shown)
Valpha: AQKVTQAQTEISVVEKEDVTLDCVYETRDTTYYLFWYKQPPSGELVFLIRRNSFDEQNEISGRYSWNFQKSTSSFNFTITASQVVDSAVYFCALSEALGYSSASKIIFGSGTRLSIRP
Vbeta: GAGVSQSPSNKVTEKGKDVELRCDPISGHTALYWYRQSLGQGLEFLIYFQGNSAPDKSGLPSDRFSAERTGGSVSTLTIQRTQQEDSAVYLCASSDPMSGAQETQYFGPGTRLLVL
Turning to B2, the binding result in assay [1] is “no recognition”; in assay [2], “recognises”.

B3: TCR_2 (MAGE-A3-reactive TCR, transgenically expressed on CD8+ T cells) (TCR, V domains shown)
V domain 1: KQEVTQIPAALSVPEGENLVLNCSFTDSAIYNLQWFRQDPGKGLTSLLLIQSSQREQTSGRLNASLDKSSGRSTLYIAASQPGDSATYLCAVRWETSGSRLTFGEGTQLTVNP
V domain 2: DSGVTQTPKHLITATGQRVTLRCSPRSGDLSVYWYQQSLDQGLQFLIQYYNGEERAKGNILERFSAQQFPDLHSELNLSSLELGDSALYFCASSVGGGYEQYFGPGTRLTVTE
The molecule B3 yielded a percent of T cells binding the MAGE-A3EVD-MHC-multimer in assay [3] of 20%.

B4: TCR2 (TCR, V domains shown)
Valpha: KQEVTQIPAALSVPEGENLVLNCSFTDSAIYNLQWFRQDPGKGLTSLLLIQSSQREQTSGRLNASLDKSSGRSTLYIAASQPGDSATYLCAVRWETSGSRLTFGEGTQLTVNP
Vbeta: DSGVTQTPKHLITATGQRVTLRCSPRSGDLSVYWYQQSLDQGLQFLIQYYNGEERAKGNILERFSAQQFPDLHSELNLSSLELGDSALYFCASSVGGGYEQYFGPGTRLTVT
Turning to B4, the binding result in assay [1] is “no recognition”; in assay [2], “recognises”.
